Experimental data published in US20100093033.

Legend:
[1] = biological target: Lactose repressor LacI (Escherichia coli) (UniProt P03023); details: CITED general LacO affinity, method not stated; printed as <10-12 M; cited from earlier work
[2] = biological target: E47-LacI fusion (Escherichia coli LacI; E47 organism not stated) (UniProt P03023); assay: cell_activity; details: sIgM loss; almost reversed by 100 uM IPTG
[3] = biological target: HIRA-LacI fusion (Escherichia coli LacI; HIRA organism not stated) (UniProt P03023); assay: cell_activity; details: sIgM loss; untethered HIRA 1.7-fold
[4] = biological target: LacI-HP1 fusion (Escherichia coli LacI; Drosophila melanogaster HP1a) (UniProt P03023); assay: cell_activity; details: sIgM loss; chromatin effects largely reversed by 250 uM IPTG
[5] = system: E2A (Gallus gallus); details: ChIP with anti-E2A vs IgG, normalized to ovalbumin

Substance	Kd [1] [pM]	activity (fold diversification vs GFP-LacI) [2]	activity (fold diversification vs GFP-LacI) [3]	activity (fold diversification vs GFP-LacI) [4]	binding signal (fold enrichment) [5]
PolyLacO at Igλ (about 80-100 repeats of 20 bp lac operator, 3.8 kb)	< 1	4.5	11	5.6	–
rearranged VλR allele, DT40	–	–	–	–	17.6
